Assay results from patent publication US20220010003A1 (Boehringer Ingelheim, published 2022).
Numbering of substitutions follows the chain as printed.

Key:
NB1243 (L287A) = molecular target: T1, NB1243 (L287A) (human, UniProt Q15063 22-631, limits assumed); experiment: ELISA on alanine variants of POSTN EMI-FAS4, second screen
T1 construct: also called POSTN EMI-FAS4 L287A
T1 sequence: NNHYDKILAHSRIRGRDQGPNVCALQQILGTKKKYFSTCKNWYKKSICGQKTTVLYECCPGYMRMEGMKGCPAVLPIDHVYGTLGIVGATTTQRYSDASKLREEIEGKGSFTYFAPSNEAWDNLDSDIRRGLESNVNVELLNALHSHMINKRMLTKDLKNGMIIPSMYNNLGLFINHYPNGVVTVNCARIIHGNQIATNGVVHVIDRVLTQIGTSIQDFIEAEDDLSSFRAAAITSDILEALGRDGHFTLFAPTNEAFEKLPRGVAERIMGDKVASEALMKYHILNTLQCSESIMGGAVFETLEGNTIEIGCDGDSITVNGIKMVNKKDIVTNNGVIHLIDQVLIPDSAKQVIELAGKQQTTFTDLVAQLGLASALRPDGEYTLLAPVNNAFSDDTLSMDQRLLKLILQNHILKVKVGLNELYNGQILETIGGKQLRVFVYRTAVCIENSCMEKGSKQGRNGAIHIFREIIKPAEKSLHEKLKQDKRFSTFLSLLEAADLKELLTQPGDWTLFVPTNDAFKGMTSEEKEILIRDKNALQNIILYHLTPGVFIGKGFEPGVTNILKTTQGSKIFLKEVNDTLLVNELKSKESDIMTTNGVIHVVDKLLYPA

NB1248 (K302A) = molecular target: T2, NB1248 (K302A) (human, UniProt Q15063 22-631, limits assumed); experiment: as above
T2 construct: also called POSTN EMI-FAS4 K302A
T2 sequence: T1 sequence with A266L, K281A

NB1202 (N276A) = molecular target: T3, NB1202 (N276A) (human, UniProt Q15063 22-631, limits assumed); experiment: as above
T3 construct: also called POSTN EMI-FAS4 N276A
T3 sequence: T1 sequence with N255A, A266L

[1] = molecular target: T4, recombinant mouse periostin (mouse, UniProt Q62009-2 24-811, limits assumed); experiment: BLI (Octet Red); Table 6 ties the low end of the range to mouse periostin
T4 construct: also called MoPOSTN
T4 sequence (looked up): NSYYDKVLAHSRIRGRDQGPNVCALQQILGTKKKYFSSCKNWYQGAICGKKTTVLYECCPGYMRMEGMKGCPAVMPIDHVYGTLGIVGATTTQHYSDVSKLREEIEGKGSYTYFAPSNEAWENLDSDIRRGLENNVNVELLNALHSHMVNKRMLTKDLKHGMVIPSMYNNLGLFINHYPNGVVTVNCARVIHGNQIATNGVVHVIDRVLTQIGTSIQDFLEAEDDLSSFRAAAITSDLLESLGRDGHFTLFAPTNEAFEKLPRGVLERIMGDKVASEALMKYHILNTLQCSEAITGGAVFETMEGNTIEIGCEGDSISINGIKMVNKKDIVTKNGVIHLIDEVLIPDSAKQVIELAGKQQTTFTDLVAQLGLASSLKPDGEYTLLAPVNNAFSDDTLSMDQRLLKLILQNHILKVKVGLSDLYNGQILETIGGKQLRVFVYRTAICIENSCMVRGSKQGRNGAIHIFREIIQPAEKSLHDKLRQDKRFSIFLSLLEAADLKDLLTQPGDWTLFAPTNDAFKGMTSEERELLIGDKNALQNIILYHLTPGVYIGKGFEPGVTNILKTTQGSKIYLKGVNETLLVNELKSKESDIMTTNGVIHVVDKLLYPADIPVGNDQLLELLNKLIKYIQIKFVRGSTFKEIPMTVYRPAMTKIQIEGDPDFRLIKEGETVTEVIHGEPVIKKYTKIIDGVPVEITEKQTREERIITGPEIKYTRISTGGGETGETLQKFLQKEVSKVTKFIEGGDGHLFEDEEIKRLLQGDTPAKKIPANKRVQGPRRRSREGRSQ
Experimental: NB0828's binding affinity was determined across human, mouse, rat, and cyno species. NB0828 affinities were determined using the octet red system. Briefly, anti-human Fc (AHC) biosensors were used to capture NB0828, followed by association of titrating amounts of either recombinant human, mouse, rat, or cyno periostin (100 nM→0 nM; 1:2 dilutions). Recombinant human, mouse, and rat periostin was purchased commercially from R&D systems, whereas cyno periostin was made internally.

loss from the max signal (NB1243 (L287A)): > 50%
loss from the max signal (NB1248 (K302A)): > 50%
loss from the max signal (NB1202 (N276A)): > 50%
Kd [1]: 0.1 nM
B1: NB0828 (antibody, V domains shown)
VH: QVQLVQSGAEVKKPGASVKVSCKASGYTFTSYGISWVRQAPGQGLEWMGWISAYNGNTNYAQKLQGRVTMTTDTSTSTAYMELRSLRSDDTAVYYCARDMLVVPFDYWGQGTLVTVSS
VL: QSVLTQSSSASGTPGQTVTVSCSGSSSDIGSNRVNWYQQLPGTAPKLLIYSNDQRPSGVPDRFSGSKSGTSASLAISGLQSADEADYYCAAWDDSLSTYVFGSGTKVTVL
